For test [1], the target named is complex of agonist-bound m1 muscarinic cholinergic receptor with heterotrimeric Gq (Gαqβ1γ2) (UniProt P11229). Description: global least-squares fit of a kinetic model to steady-state GTPase rates; GDP-bound Gq species; purified proteins in unilamellar phospholipid vesicles; constants calculated from fitted rate constants (log average of 41 fits); protein concentrations counted on the bilayer volume, so association constants are about 13,000-fold higher than on the aqueous volume.

Test [2] deals with heterotrimeric Gq (Gαqβ1γ2) (UniProt P21279). The test is described as above.
For test [3], the target named is complex of agonist-bound m1 muscarinic cholinergic receptor with heterotrimeric Gq (Gαqβ1γ2) (UniProt P11229). Description: global least-squares fit of a kinetic model to steady-state GTPase rates; GTP-bound Gq species; purified proteins in unilamellar phospholipid vesicles; constants calculated from fitted rate constants (log average of 41 fits); protein concentrations counted on the bilayer volume, so association constants are about 13,000-fold higher than on the aqueous volume.

Test [4] has as its target heterotrimeric Gq (Gαqβ1γ2) (UniProt P21279). The test is described as above.
Test [5] concerns the target complex of agonist-bound m1 muscarinic cholinergic receptor with heterotrimeric Gq (Gαqβ1γ2) (UniProt P11229). Description: global least-squares fit of a kinetic model to steady-state GTPase rates; nucleotide-free Gq species; purified proteins in unilamellar phospholipid vesicles; constants calculated from fitted rate constants (log average of 41 fits); protein concentrations counted on the bilayer volume, so association constants are about 13,000-fold higher than on the aqueous volume.

Test [6] addresses heterotrimeric Gq (Gαqβ1γ2) (UniProt P21279). The test is described as above.

m1 muscarinic cholinergic receptor, sequence (P11229 whole entry): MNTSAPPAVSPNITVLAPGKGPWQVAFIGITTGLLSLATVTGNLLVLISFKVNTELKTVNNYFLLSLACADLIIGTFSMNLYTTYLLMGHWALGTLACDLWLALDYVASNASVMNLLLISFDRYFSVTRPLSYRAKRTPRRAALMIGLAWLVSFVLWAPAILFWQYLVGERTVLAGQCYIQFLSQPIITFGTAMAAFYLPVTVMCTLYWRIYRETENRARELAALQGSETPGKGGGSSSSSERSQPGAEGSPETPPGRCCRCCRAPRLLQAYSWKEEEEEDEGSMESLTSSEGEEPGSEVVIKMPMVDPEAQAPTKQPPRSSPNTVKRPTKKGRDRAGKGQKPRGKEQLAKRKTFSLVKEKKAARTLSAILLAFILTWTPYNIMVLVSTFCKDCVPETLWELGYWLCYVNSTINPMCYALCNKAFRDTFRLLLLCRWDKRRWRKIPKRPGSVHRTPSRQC

As to “phospholipase C-β1 (from UniProt P10687 1-1216) (enzyme)”, the Ka in test [1] is 2300 M⁻¹; in test [2] it was 280000 M⁻¹; in test [3] it was 390000 M⁻¹; in test [4], 9.6e+06 M⁻¹; in test [5], 560000 M⁻¹; in test [6], 370000 M⁻¹. For the same substance, in test [1], the fold faster dissociation than from Gq-GDP without receptor is 90 fold. The t1/2 of dissociation in test [1] was 0.3 s.

Consider “m1 muscarinic cholinergic receptor (from UniProt P11229 1-460)”, for which the fold faster dissociation with GTP bound in test [4] is 70 fold.
